For the assay, the target named is T1, 35S-MCM (T.acidophilum MCM labeled with 35S-Met) (Thermoplasma acidophilum, UniProt Q9HK10 1-698, 35S-Met).
T1 sequence (looked up): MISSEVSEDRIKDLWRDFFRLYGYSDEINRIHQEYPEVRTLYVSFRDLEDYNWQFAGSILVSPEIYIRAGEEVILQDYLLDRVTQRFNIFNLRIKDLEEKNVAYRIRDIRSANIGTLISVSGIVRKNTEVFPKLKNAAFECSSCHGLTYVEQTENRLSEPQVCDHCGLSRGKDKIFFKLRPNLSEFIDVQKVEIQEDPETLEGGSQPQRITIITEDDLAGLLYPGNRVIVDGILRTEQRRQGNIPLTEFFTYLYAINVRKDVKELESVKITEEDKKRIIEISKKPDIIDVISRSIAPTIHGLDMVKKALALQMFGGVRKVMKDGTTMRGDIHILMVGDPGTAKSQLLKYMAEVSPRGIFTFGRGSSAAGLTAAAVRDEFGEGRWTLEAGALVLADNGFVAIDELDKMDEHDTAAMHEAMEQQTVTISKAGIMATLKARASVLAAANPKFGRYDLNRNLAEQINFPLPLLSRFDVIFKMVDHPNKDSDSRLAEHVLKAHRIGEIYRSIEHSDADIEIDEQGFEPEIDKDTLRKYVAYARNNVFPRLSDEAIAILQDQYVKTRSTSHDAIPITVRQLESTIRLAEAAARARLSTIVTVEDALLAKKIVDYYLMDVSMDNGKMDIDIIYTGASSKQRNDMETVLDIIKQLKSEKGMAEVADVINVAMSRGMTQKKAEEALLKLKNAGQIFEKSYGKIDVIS
The assay can be described thus: pull-down.

B1: T.acidophilum Cdc6-2 (Ta0636), C-terminal six His-tag (natural protein, Thermoplasma acidophilum, UniProt Q9HKG3 1-404, looked up)
chain: MDNPFARFAGTRTIQANLSLLEENYVPDSFPHRENQINEMVTILSSIMRGSRPSNIIVYGKTGTGKTSTTKYVTKMLVEAASNVSVVYVNCEIYDSPYSILVAIANSAGEEKIPELGWPIDRIYRETVERVEKTGKFFIIILDEMDRLIKKNGGDSLYVLLKLMTDVDSVRVSMIGITNDTTVLENIDARIKSRLNQESIVFPPYNASEIRDIISSRLDKVLGPGVVDDTAINLCAAIGAQEHGDARKAIDLMRIAIEIAIRENRNKITENEIYEARERYEMNVLREAISTLPLHSKIVLLSAVVTQEIEPNSVITGEIYENYRRICDDLGFSPLSPRRISDLLTELADYGLLVMDDRNMGKYGRTRSFSVVHQAETIKKYLLEDENLSMFKSSKMPKQTRFDT
On to B1, for which the binding result was “binds”.

The record behind these values is publication PMC1669734 (Nucleic Acids Research, 2006).
